# Results: article PMC4596477, “Interaction of Myosin Phosphatase Target Subunit (MYPT1) with Myosin Phosphatase-RhoA Interacting Protein (MRIP): A Role of Glutamic Acids in the Interaction” (PLoS ONE, 2015)
# T1: MRIP^724-878 (Homo sapiens, UniProt Q6WCQ1)
# T1 construct: MRIP^724-878 (residues 724–878; CC2-CC4); made in house; host or cells: Escherichia coli BL21 (DE3)
# T1 sequence (Q6WCQ1 725-879): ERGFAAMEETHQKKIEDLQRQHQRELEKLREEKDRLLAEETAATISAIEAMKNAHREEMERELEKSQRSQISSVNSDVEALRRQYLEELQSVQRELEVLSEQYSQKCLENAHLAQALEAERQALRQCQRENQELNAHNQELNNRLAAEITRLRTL
# B1: MRIP^724-878 (myosin phosphatase-RhoA interacting protein, residues 724–878; CC2-CC4) (domain or fragment, UniProt Q6WCQ1 724-878, looked up)
# chain: CERGFAAMEETHQKKIEDLQRQHQRELEKLREEKDRLLAEETAATISAIEAMKNAHREEMERELEKSQRSQISSVNSDVEALRRQYLEELQSVQRELEVLSEQYSQKCLENAHLAQALEAERQALRQCQRENQELNAHNQELNNRLAAEITRLRT
# notes: Tight homodimer in solution by AUC; the forward primer puts an NdeI ATG before the codons GAGCGAGGGTTTGCAGCAATG; source: E. coli BL21 (DE3), purified (chitin beads, C8 reversed-phase HPLC)
# B2: MRIP^724-837 (myosin phosphatase-RhoA interacting protein, residues 724–837; CC2-CC3) (domain or fragment, UniProt Q6WCQ1 724-837, looked up)
# chain: CERGFAAMEETHQKKIEDLQRQHQRELEKLREEKDRLLAEETAATISAIEAMKNAHREEMERELEKSQRSQISSVNSDVEALRRQYLEELQSVQRELEVLSEQYSQKCLENAHL
# notes: Monomer-dimer equilibrium in solution by AUC; source: E. coli BL21 (DE3), purified (chitin beads, C8 reversed-phase HPLC)
# B3: MRIP^545-878: recombinant tag-free MRIP peptide, residues 545–878; CC1-CC4 (protein)
# chain: WAEFRPIQQALAQERVGGVGPADTHEPLRPEAEPGELERERARRREERRKRFGMLDATDGPGTEDAALRMEVDRSPGLPMSDLKTHNVHVEIEQRWHQVETTPLREEKQVPIAPVHLSSEDGGDRLSTHELTSLLEKELEQSQKEASDLLEQNRLLQDQLRVALGREQSAREGYVLQATCERGFAAMEETHQKKIEDLQRQHQRELEKLREEKDRLLAEETAATISAIEAMKNAHREEMERELEKSQRSQISSVNSDVEALRRQYLEELQSVQRELEVLSEQYSQKCLENAHLAQALEAERQALRQCQRENQELNAHNQELNNRLAAEITRLRT
# modifications: left off: chitin-binding domain (IMPACT kit, pTYB12), N-terminal, cleaved
# notes: recombinant tag-free MRIP peptide, residues 545–878; CC1-CC4
# B4: MRIP^724-837: recombinant tag-free MRIP peptide, residues 724–837; CC2-CC3 (protein)
# chain: B2 chain
# modifications: left off: chitin-binding domain (IMPACT kit, pTYB12), N-terminal, cleaved
# notes: recombinant tag-free MRIP peptide, residues 724–837; CC2-CC3
# Key:
# MRIP^724-878 = molecular target: T1, MRIP^724-878; assay: AUC interaction of MYPT1 peptides (CC, LR and LR mutants) with MRIP^724-878; assay type: binding; conditions: s*lg(s*) graphs, pH 7.4, 20°C; for main peak position of mixture with MRIP^724-878: excess mutant LR peptide for R992D/R993D and E996K, 50 μM each for others; for binding affinity toward MRIP^724-878, LR mutants: MRIP^724-878 with mutant LR peptide, 50 μM each, compared with wild-type LR
# From the text: To determine the minimal MRIP-binding region of MYPT1, AUC was employed to examine interactions between sub-domains of CCLR, CC (residues 924–990) and LR (residues 991–1030) with MRIP^724-878 (Fig 4A). CC is the putative coiled coil domain and LR contains 16 upstream amino acid residues (residues 991–1006) in addition to the leucine repeat (residues 1007–1028). MRIP^724-878 was chosen because of its good fit to a single component, single-species model. […] Global fitting of the mixture to a two-component model produced a good fit and the RMSD of the fit was 0.010 (Fig 4B; Fitting of CC).
# The coiled coil is a common protein-protein interaction domain. The MRIP peptides in this study have putative coiled coil domains and are α-helical. In contrast, the MYPT1 peptide, LR is not α-helical even though it contains the leucine repeat. Thus, we hypothesized that charged residues of MYPT1 might participate in the MYPT1/MRIP interaction with its leucine residues. We generated various LR peptides representing mutations in charged residues (Fig 6A) and examined their bindings to MRIP^724-878 (Fig 6B).
# Fig 6 Glutamic acids within LR enhance the MRIP-binding affinity. (A) Amino acid sequences of the wild-type LR (WT-LR) and mutant LR peptides. Charged residues are in bold, the leucine repeat is in Italic, and substitution mutations are underlined. (B) Time derivative s*lg(s*) graphs: Line, MRIP^724-878 alone (50 μM); filled-in circles, original mixture of MRIP^724-878/each mutant LR peptide (50 μM each except for R992D/R993D and E996K whose mixtures consisted of excess amount of the mutant LR peptides); open circles, a three-fold dilution of the original mixture. The molar mass of the complex differs slightly from that of MRIP^724-878 dimer (37.9 kDa vs 37.4 kDa), and thus the shift in the main peak position is not easily discernable in many cases.
# (§1) The cDNA fragment encoding MRIP peptides were amplified using a full-length MRIP cDNA as a template with the following primer pairs: MRIP^545-878, 5’-[…]/5’[…]; MRIP^724-878, 5’-[…]/5’-[…]; MRIP^724-837, 5’-[…]/5’-[…]. The PCR products were ligated into pCR2.1-TOPO using the TA cloning system and sequenced in both directions. The IMPACT™ (Intein Mediated Purification with an Affinity Chitin-binding Tag) Kit (New England BioLabs) was used to express peptides in bacteria to obtain tag-free peptides. The PCR amplicon encoding MRIP peptides were fused in frame to the chitin binding domain of pTYB12 vector utilizing the NdeI/EcoRI restriction sites. The expression vectors for the MYPT1 peptides, CCLR (residues 924–1030), CC (residues 924–990), and LR (residues 991–1030) were constructed as described: In the reference literature, CCLR and LR were named CCLZ and LZ, respectively. Recombinant peptides were produced in Escherichia coli strain BL21 (DE3) and purified using chitin beads according to the manufacturer's protocol. For further purification, the eluent from chitin beads was loaded on a Vydac C8 reversed phase column and subjected to HPLC using an acetonitrile gradient. Purity and identity of the peptides were confirmed by polyacrylamide gel electrophoresis (PAGE) and mass spectrometry. For the mutagenesis study of LR, the wild-type and mutant LR peptides were synthesized, purified by reverse-phase HPLC, and lyophilized to dryness at the peptide core in Boston Biomedical Research Institute.
# Sedimentation velocity experiments were done on a Beckman Instruments Optima XL-I analytical ultracentrifuge equipped with Rayleigh optics. The cells were equipped with sapphire windows and 12 mm charcoal-filled Epon centerpieces. Apparent sedimentation coefficient distribution patterns were computed by the time derivative method. Peptides were dialyzed against 50 mM potassium phosphate buffer (pH 7.4) containing 100 mM KCl, and 1 mM DTT at 4°C overnight and then subjected to AUC at 50,000 rpm and 20°C. […]
# [1] = molecular target: the molecule itself; assay: AUC; sedimentation velocity of each MRIP peptide alone, three-fold serial dilutions (MRIP^545-878 1.5–13.6 μM, MRIP^724-878 4.7–42.3 μM, MRIP^724-837 7.5–67.1 μM); 50 mM potassium phosphate pH 7.4, 100 mM KCl, 1 mM DTT, 50,000 rpm, 20°C; global fitting with SedAnal; constant of MRIP^724-837: dimer to monomers
# [2] = AUC sedimentation velocity of MRIP peptides alone (molar mass, sedimentation coefficient, oligomeric state); assay type: physicochemical; conditions: for molar mass: 50 mM potassium phosphate pH 7.4, 100 mM KCl, 1 mM DTT; for concentration dependence of g(s*) curves: MRIP^545-878 1.5–13.6 μM, MRIP^724-878 4.7–42.3 μM, MRIP^724-837 7.5–67.1 μM, pH 7.4, 20°C
# From the text: The RMSD of the fit was 0.008.
# as §1
# Sedimentation velocity experiments were done on a Beckman Instruments Optima XL-I analytical ultracentrifuge equipped with Rayleigh optics. The cells were equipped with sapphire windows and 12 mm charcoal-filled Epon centerpieces. Apparent sedimentation coefficient distribution patterns were computed by the time derivative method. Peptides were dialyzed against 50 mM potassium phosphate buffer (pH 7.4) containing 100 mM KCl, and 1 mM DTT at 4°C overnight and then subjected to AUC at 50,000 rpm and 20°C. Molar mass was computed from sedimentation velocity profiles using SedAnal, which uses a nonlinear least-squares curve fitting algorithm to fit data to solutions of the differential equation (the Lamm equation) describing sedimentation. Fits were performed on time difference data to remove the time-independent systematic baseline components. Values of s and D produced by the fitting procedure were substituted into the Svedberg equation to obtain the molar mass of the protein, M: M=RT/(1−ν¯ρ)s20,wo/D20,wo where ρ is the density of the buffer and ν¯ is the partial specific volume of the protein. Sednterp was employed to compute values of ρ and ν¯ from the amino acid sequence.
# CCLR = assay: AUC interaction of MRIP peptides with MYPT1 peptide CCLR (residues 924–1030); assay type: binding; conditions: equimolar mixtures (MRIP^545-878 14 μM each; MRIP^724-878 30 μM each; MRIP^724-837 67 μM each) and 3-, 9-fold dilutions, pH 7.4, 100 mM KCl, 20°C
# Method: AUC was performed to examine the interactions of MRIP^545-878, MRIP^724-878, or MRIP^724-837 individually with the MYPT1 peptide (residues 924–1030) containing a putative coiled coil domain (CC) and the leucine repeat region (LR), designated as CCLR.
# Fig 3 All MRIP peptides bind to the C-terminal region of MYPT1, CCLR (residues 924–1030). Concentration-normalized time derivative g(s*) graphs of the MRIP peptides by themselves and in equimolar mixtures: Lines, CCLR (30 μM); +, individual MRIP peptides by themselves (MRIP^545-878, 14 μM; MRIP^724-878, 50 μM; MRIP^724-837, 67 μM); black filled-in circles, original equimolar mixtures (MRIP^545-878, 14 μM each; MRIP^724-878, 30 μM each; MRIP^724-837, 67 μM each); open circles, 3-fold dilutions; gray filled-in circles, 9-fold dilutions.
# as §1, with “For the mutagenesis study of LR, the wild-type and mutant LR peptides were synthesized, purified by reverse-phase HPLC, and lyophilized to dryness at the peptide core in Boston Biomedical Research Institute.” left out
# [3] = AUC sedimentation velocity, pH 7.4, 100 mM KCl, 20°C
molecule,measurement,setting,value
"E996K: mutant LR peptide with same length as wild-type, substitutions for charged residues (ERRISKMEEELKMLPDLKADNQRLKDENGALIRVISKLSK)",main peak position of mixture with MRIP^724-878,MRIP^724-878,"shifted to the right, indicating binding"
EtriA: mutant LR in which glutamic acid residues 998–1000 were replaced by alanine (ERRISEMAAALKMLPDLKADNQRLKDENGALIRVISKLSK),"binding affinity toward MRIP^724-878, LR mutants",MRIP^724-878,significantly decreased binding affinity
EtriQ: mutant LR in which glutamic acid residues 998–1000 were replaced by glutamine (ERRISEMQQQLKMLPDLKADNQRLKDENGALIRVISKLSK),"binding affinity toward MRIP^724-878, LR mutants",MRIP^724-878,significantly decreased binding affinity
LR^997-1030: mutant LR peptide shorter than LR in length (MEEELKMLPDLKADNQRLKDENGALIRVISKLSK),"binding affinity toward MRIP^724-878, LR mutants",MRIP^724-878,decreased
LR^1001-1030: mutant LR peptide shorter than LR in length (LKMLPDLKADNQRLKDENGALIRVISKLSK),"binding affinity toward MRIP^724-878, LR mutants",MRIP^724-878,decreased
LR^1007-1028: mutant LR peptide shorter than LR in length (LKADNQRLKDENGALIRVISKL),"binding affinity toward MRIP^724-878, LR mutants",MRIP^724-878,decreased
"R992D/R993D: mutant LR peptide with same length as wild-type, substitutions for charged residues (EDDISEMEEELKMLPDLKADNQRLKDENGALIRVISKLSK)",main peak position of mixture with MRIP^724-878,MRIP^724-878,"shifted to the right, indicating binding"
B1,stoichiometry N,[1],2
B2,Kd,[1],21 µM
same,stoichiometry N,[1],2
B3,molar mass,"[2]; AUC sedimentation velocity, SedAnal global fit to two components (main component), 1.5–13.6 μM, 50,000 rpm, 20°C, CL 0.95, min, 38.1, max, 40.9",39.4 kDa
same,sedimentation coefficient,"[2]; AUC sedimentation velocity, SedAnal global fit, two components (main component), 1.5–13.6 μM, pH 7.4, 100 mM KCl, 20°C, CL 0.95",2.17±0.01 S
same,oligomeric state in solution,[2]; [3],forms a monomer in solution
same,concentration dependence of g(s*) curves,[2]; AUC,no-concentration dependence and the presence of one species in solution
same,binding to CCLR (shift in g(s*) curves),CCLR,bind to CCLR
B4,molar mass,"[2]; AUC sedimentation velocity, SedAnal global fit to monomer-dimer reaction, 7.5–67.1 μM, 20°C, CL 0.95",13.9±0.2 kDa
same,oligomeric state in solution,[2]; [3],a mixture of monomer-dimer
same,"sedimentation coefficient, monomer","[2]; AUC, monomer-dimer model, 7.5–67.1 μM, pH 7.4, 100 mM KCl, 20°C, CL 0.95, min, 1.23, max, 1.31",1.29 S
same,"sedimentation coefficient, dimer","[2]; AUC, monomer-dimer model, 7.5–67.1 μM, pH 7.4, 100 mM KCl, 20°C, CL 0.95, min, 1.88, max, 1.91",1.90 S
same,concentration dependence of g(s*) curves,[2]; AUC,concentration dependence and a reversible interaction
same,binding to CCLR (shift in g(s*) curves),CCLR,bind to CCLR
